{"source": "patent US20030157101A1", "about": "“Immunogenic ALK peptides” (priority 2001, published 2003)", "target": "T1, HLA-A*0201 molecules on TAP-deficient T2 cells (human)", "T1 construct": "Peptide-receptive class I molecule on T2 cells; also called HLA-A2.1; HLA-A2", "assay": "T2 cell HLA-A*0201 stabilisation, 100 uM peptide, flow cytometry with mAb BB7.2; mean of 4 experiments ± SEM", "method": "T2 cells were incubated with 100 μM of peptide in serum-free RPMI 1640 supplemented with 5 μg/ml of human β₂m (Fluka, Buchs, Germany) for 18 hrs at 37° C.", "data": [{"binder": "SLTANMKEV (C-terminal portion of the protein; also called p621-29)", "note": "[ALK peptide p621-629 (SLTANMKEV)]", "values": [{"measurement": "FI (Fluorescence Index)", "value": "3.5 ratio (sample / irrelevant-peptide control)"}]}]}
